Experimental data taken from PMC12415261 (Proceedings of the National Academy of Sciences of the …, 2025).

B1: Recombinant human BMP6 (mammalian expressed, glycosylated), P22004 375-513 (ligand)
chain: SASSRRRQQSRNRSTQSQDVARVSSASDYNSSELKTACRKHELYVSFQDLGWQDWIIAPKGYAANYCDGECSFPLNAHMNATNHAIVQTLVHLMNPEYVPKPCCAPTKLNAISVLYFDDNSNVILKKYRNMVVRACGCH
modifications: here or on the partner: N-linked glycosylation at Asn454 (prehelix loop)
B2: Recombinant human BMP6 (mammalian expressed, glycosylated) (ligand, UniProt P22004 375-513, looked up)
chain: B1 chain
modifications: N-linked glycosylation at Asn454 (prehelix loop)
notes: BMP6, human, mature domain of the precursor (residues 410 to 513 resolved in the cryoEM maps, 82.3% of the mature domain); disulfide-linked dimer; also called Bone Morphogenetic Protein 6; source: bought: RnD (Cat. No. 507-BP), produced from CHO cells
B3: Recombinant human BMP6, mammalian expressed (glycosylated), P22004 375-513 (ligand)
chain: B1 chain
modifications: here or on the partner: N-linked glycosylation at Asn454 (prehelical loop)
B4: Recombinant human BMP6, mammalian expressed (glycosylated) (ligand, UniProt P22004 375-513, looked up)
chain: B1 chain
modifications: N-linked glycosylation at Asn454 (prehelical loop)
notes: mature domain of human BMP6; residues 410 to 513 resolved in the maps (82.3% of mature domain); Dimer held together by a cystine knot; also called glycosylated BMP6; source: bought: RnD (Cat. No. 507-BP), produced from CHO cells
B5: Deglycosylated BMP6 (BMP6 treated with PNGaseF) (ligand, human, UniProt P22004 375-513, looked up)
chain: B1 chain
modifications: glycosylation completely removed with PNGaseF
notes: mature domain of human BMP6; also called dgBMP6; source: bought: RnD (Cat. No. 507-BP), CHO; deglycosylated with rapid PNGase F (15 min at 50 °C)
B6: Deglycosylated BMP6 (BMP6 treated with PNGaseF) (ligand, human, UniProt P22004 375-513, looked up)
chain: B1 chain
notes: BMP6, human, mature domain of the precursor, N-linked glycosylation completely removed with PNGaseF; disulfide-linked dimer; Same protein as Dm1 after PNGaseF treatment; also called dgBMP6; PNGaseF treated BMP6; source: bought: RnD (Cat. No. 507-BP), produced from CHO cells; deglycosylated with rapid PNGase F (New England Biolabs), 15 min at 50 C
B7: ActRIIB2-Fc (trap with two ActRIIB extracellular domains) (Fc fusion, human, UniProt Q13705-1 19-133, looked up)
chain: SGRGEAETRECIYYNANWELERTNQSGLERCEGEQDKRLHCYASWRNSSGTIELVKKGCWLDDFNCYDRQECVATEENPQVYFCCCEGNFCNERFTHLPEAGGPEVTYEPPPTAP
notes: signal peptide in the construct; ActRIIB (activin receptor type IIB), human, extracellular domain, residues 1 to 133, fused to an IgG1 Fc domain; The limits 1 to 133 are told for the ActRIIB-Fc fusions of this study in general; not shown: Fc (IgG1), C-terminal, kept
B8: ActRIIB1-Fc (trap with a single ActRIIB extracellular domain) (Fc fusion)
chain: B7 chain
modifications: Printed range is 1-133; signal peptide 1-18 is removed. The deposited 9N4K/9MIR chains run to T134 before the linker. Human IgG1 Fc carrier is left out; the second Fc arm carries no receptor. …
B9: ActRIIB2-Fc (Fc fusion, human, UniProt Q13705-1 19-133, looked up)
chain: B7 chain
notes: signal peptide in the construct; extracellular domain of human ActRIIB, residues 1 to 133; also called trap containing two ActRIIB ECDs; source: CHO cells, purified, as previously described (17, 19); not shown: Fc (IgG1), C-terminal, kept

What was measured:
[1] = target: ActRIIB1-Fc (trap with a single ActRIIB extracellular domain) (human); test: SPR; Cytiva T-200; trap captured through its Fc on a CM4 chip with immobilised goat antihuman Fc-specific IgG (about 3,000 RU); ligand flowed, five-step twofold dilution from 5 nM; 10 mM HEPES pH 7.4, 350 mM NaCl, 3.4 mM EDTA, 0.005% P-20; 25 C; 300 s association and dissociation, 30 uL/min; 1:1 fit with mass transport limitation; triplicate
[2] = target: T1, ALK3-ActRIIB-Fc (heterodimeric trap) (human, UniProt P36894 24-152; Q13705 19-133); test: as above; settings: both partners purified
T1 construct: signal peptide in the construct; ActRIIB, human, extracellular domain, residues 1 to 133, fused to an IgG1 Fc domain; also called ALK3-IIB-Fc; ActRIIB-ALK3; source: SEC Superdex 200 increase; not shown: Fc (IgG1), C-terminal, kept; copies: 1 + 1

[3] = target: T2, ALK2-ActRIIB-Fc (heterodimeric trap) (human, UniProt Q04771 21-123; Q13705 19-133); test: as above; settings: both partners purified
T2 construct: signal peptide in the construct; ActRIIB, human, extracellular domain, residues 1 to 133, fused to an IgG1 Fc domain; also called ALK2-IIB-Fc; ActRIIB-ALK2; source: SEC Superdex 200 increase; not shown: Fc (IgG1), C-terminal, kept; copies: 1 + 1

ActRIIB1-Fc (human) = test: SPR; traps captured by goat antihuman Fc IgG on a CM4 chip; ligand flowed, five-step twofold dilution from 5 nM; HBS-EP+ (10 mM HEPES pH 7.4, 350 mM NaCl, 3.4 mM EDTA, 0.005% P-20), 25 °C; 1:1 fit with mass transport limitation
ALK2-ActRIIB-Fc = target: T3, ALK2-ActRIIB-Fc (human, UniProt Q04771 21-123; Q13705 19-133); test: as above; settings: both partners purified
T3 construct: signal peptide in the construct; extracellular domain of human ActRIIB, residues 1 to 133; also called heterodimeric trap; ActRIIB-ALK2; source: CHO cells, cotransfected, purified (MabSelect SuRe protein A with pH gradient, SEC); not shown: Fc (IgG1), C-terminal, kept; copies: 1 + 1

ALK3-ActRIIB-Fc = target: T4, ALK3-ActRIIB-Fc (human, UniProt P36894 24-152; Q13705 19-133); test: as above; settings: both partners purified
T4 construct: signal peptide in the construct; extracellular domain of human ActRIIB, residues 1 to 133; also called heterodimeric trap; ActRIIB-ALK3; source: CHO cells, cotransfected, purified (MabSelect SuRe protein A, SEC); not shown: Fc (IgG1), C-terminal, kept; copies: 1 + 1

[4] = target: B2; test: SPR; Cytiva T-200; trap captured through its Fc on a CM4 chip with immobilised goat antihuman Fc-specific IgG (about 3,000 RU); ligand flowed, five-step twofold dilution from 5 nM; 10 mM HEPES pH 7.4, 350 mM NaCl, 3.4 mM EDTA, 0.005% P-20; 25 C; 300 s association and dissociation, 30 uL/min; 1:1 fit with mass transport limitation; triplicate; settings: both partners purified
[5] = target: B6; test: as above; settings: both partners purified
[6] = target: B4; test: SPR; traps captured by goat antihuman Fc IgG on a CM4 chip; ligand flowed, five-step twofold dilution from 5 nM; HBS-EP+ (10 mM HEPES pH 7.4, 350 mM NaCl, 3.4 mM EDTA, 0.005% P-20), 25 °C; 1:1 fit with mass transport limitation; settings: both partners purified

T1 sequence (P36894 24-152, one chain of several): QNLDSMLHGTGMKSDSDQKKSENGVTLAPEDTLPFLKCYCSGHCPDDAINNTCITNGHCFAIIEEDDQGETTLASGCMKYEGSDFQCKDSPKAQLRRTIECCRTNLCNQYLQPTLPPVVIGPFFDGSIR
T2 sequence (Q04771 21-123, one chain of several): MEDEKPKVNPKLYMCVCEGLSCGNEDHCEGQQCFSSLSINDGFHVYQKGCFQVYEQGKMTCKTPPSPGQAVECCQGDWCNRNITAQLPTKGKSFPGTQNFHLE
T4 sequence (P36894 24-152, one chain of several): as the sequence (P36894 24-152, one chain of several) above
T3 sequence (Q04771 21-123, one chain of several): as the sequence (Q04771 21-123, one chain of several) above

Binder: B1
koff [1]: 0.00234 s⁻¹ | kon [1]: 2.16e+07 M⁻¹ s⁻¹

Binder: B2
koff [2]: 0.000423 s⁻¹ | kon [2]: 1.39e+07 M⁻¹ s⁻¹ | koff [3]: 0.000528 s⁻¹ | kon [3]: 1.43e+07 M⁻¹ s⁻¹

Binder: B3
Kd (ActRIIB1-Fc (human)): 108 pM

Binder: B4
Kd (ALK2-ActRIIB-Fc): 36.6 pM | Kd (ALK3-ActRIIB-Fc): 30 pM

Binder: B5
Kd (ALK2-ActRIIB-Fc): 127 pM | Kd (ALK3-ActRIIB-Fc): 35.1 pM

Binder: B6
koff [2]: 0.000432 s⁻¹ | kon [2]: 1.23e+07 M⁻¹ s⁻¹ | koff [3]: 0.00147 s⁻¹ | kon [3]: 1.16e+07 M⁻¹ s⁻¹

Binder: B7
koff [4]: 0.00119 s⁻¹ | kon [4]: 3.17e+07 M⁻¹ s⁻¹ | Kd [5]: 48.9 ± 6 pM | koff [5]: 0.00152 s⁻¹ | kon [5]: 3.12e+07 M⁻¹ s⁻¹

Binder: B8
Kd [5]: 110 ± 14.8 pM | koff [5]: 0.00186 s⁻¹ | kon [5]: 1.7e+07 M⁻¹ s⁻¹

Binder: B9
Kd [6]: 42.1 pM
